Measurements reported in article PMC6201368.

B1: SCN1Bβ/WT (Navβ1b, sodium channel beta1b subunit) [human] / Kv4.3 (KCND3/WT) [human] (parent)
chain 1: GGCVEVDSETEAVYGMTFKILCISCKRRSETNAETFTEWTFRQKGTEEFVKILRYENEVLQLEEDERFEGRVVWNGSRGTKDLQDLSIFITNVTYNHSGDYECHVYRLLFFENYEHNTSVVKKIHIEVVDKGESGAACPFTVTHRRARWRDRWQAVDRTGWLCAWPANRPQQRAEGEGSSPSCPLQLWPLFLSSPRRGQSMPVPHRRSGYRTQLCHLCCMTSGRCLLSLSQRVVLGLPGIIIRCVSRGVV
chain 2: MAAGVAAWLPFARAAAIGWMPVANCPMPLAPADKNKRQDELIVLNVSGRRFQTWRTTLERYPDTLLGSTEKEFFFNEDTKEYFFDRDPEVFRCVLNFYRTGKLHYPRYECISAYDDELAFYGILPEIIGDCCYEEYKDRKRENAERLMDDNDSENNQESMPSLSFRQTMWRAFENPHTSTLALVFYYVTGFFIAVSVITNVVETVPCGTVPGSKELPCGERYSVAFFCLDTACVMIFTVEYLLRLFAAPSRYRFIRSVMSIIDVVAIMPYYIGLVMTNNEDVSGAFVTLRVFRVFRIFKFSRHSQGLRILGYTLKSCASELGFLLFSLTMAIIIFATVMFYAEKGSSASKFTSIPASFWYTIVTMTTLGYGDMVPKTIAGKIFGSICSLSGVLVIALPVPVIVSNFSRIYHQNQRADKRRAQKKARLARIRVAKTGSSNAYLHSKRNGLLNEALELTGTPEEEHMGKTTSLIESQHHHLLHCLEKTTGLSYLVDDPLLSVRTSTIKNHEFIDEQMFEQNCMESSMQNYPSTRSPSLSSHPGLTTTCCSRRSKKTTHLPNSNLPATRLRSMQELSTIHIQGSEQPSLTTSRSSLNLKADDGLRPNCKTSQITTAIISIPTPPALTPEGESRPPPASPGPNTNIPSIASNVVKVSAL

Variants of: B1
Test: co-immunoprecipitation (IP anti-KCND3, immunoblot anti-SCN1Bβ), band quantification
Details: with Kv4.3 (KCND3/WT) [human]; HEK293 cells co-transfected with KCND3/WT and SCN1Bβ; parent: 1; read off a plot

ratio to parent | Variant
1.2 | chain 1 R232T
1 | chain 1 S230R
